Test in all cases: EMSA
On the technique in general: Mobility shift assays separate free from complexed probe on a gel.

The target in series [1] is T1, Aca2 (Pectobacterium carotovorum temperate …, UniProt H9C180 1-116).
T1 sequence: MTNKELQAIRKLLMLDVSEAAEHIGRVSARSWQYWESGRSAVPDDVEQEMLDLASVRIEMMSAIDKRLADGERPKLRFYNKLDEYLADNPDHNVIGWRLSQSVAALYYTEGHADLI

In series [2] the target is T1, Aca2. This is another data set of the same source.
The target in series [3] is T1, Aca2. The source holds these as a separate data set.

Read-outs that look alike come from different tables or passages of the source.

B1: wtIR1-scIR2 promoter probe (dsDNA)
DNA 1: CACGAATGCGGCCTTAGCGATTAAAAAATATGAAATGCCTTGCTTGTTCGCGATTGCGAACATATAATTTATTCATCGGAGACTACTGCAGGTCTTCGCTCCTAACGAGGATTCCACAATGC
DNA 2: GCATTGTGGAATCCTCGTTAGGAGCGAAGACCTGCAGTAGTCTCCGATGAATAAATTATATGTTCGCAATCGCGAACAAGCAAGGCATTTCATATTTTTTAATCGCTAAGGCCGCATTCGTG
One may read the Kd as a measure of binding affinity in units of concentration. Higher therefore signals weaker binding. Regarding B1, in the series with Aca2 [1], binding was characterised by a dissociation constant (Kd) of 1.07 nM.

B2: scIR1-scIR2 promoter probe (dsDNA)
DNA 1: CACGAATGCGGCCTTAGCGATTAAAAAATATGAAATGCCTTGCTTGAGACACGAGAGTCTCATATAATTTATTCATCGGAGACTACTGCAGGTCTTCGCTCCTAACGAGGATTCCACAATGC
DNA 2: GCATTGTGGAATCCTCGTTAGGAGCGAAGACCTGCAGTAGTCTCCGATGAATAAATTATATGAGACTCTCGTGTCTCAAGCAAGGCATTTCATATTTTTTAATCGCTAAGGCCGCATTCGTG
As for B2, in the series with Aca2 [2], the binding result was “no binding”.

B3: scIR1-wtIR2 promoter probe (dsDNA)
DNA 1: CACGAATGCGGCCTTAGCGATTAAAAAATATGAAATGCCTTGCTTGAGACACGAGAGTCTCATATAATTTATTCATCGGTTCGAGATGGCTCGAATCGCTCCTAACGAGGATTCCACAATGC
DNA 2: GCATTGTGGAATCCTCGTTAGGAGCGATTCGAGCCATCTCGAACCGATGAATAAATTATATGAGACTCTCGTGTCTCAAGCAAGGCATTTCATATTTTTTAATCGCTAAGGCCGCATTCGTG
Regarding B3, the binding result with Aca2 [3] was “no binding”.

The record behind these values is article PMC6765145.
